# Test results as given in PMC8428749.
# Biological target: human C4b binding protein (C4BP) (human) (UniProt P04003)
# Assay: BLI; Octet RED96; purified C4BP immobilised on amine-reactive (AR2G) sensor; P5 loop peptides 1.25-50 µM in PBS; 30°C; 1:1 binding fit
# Chain of UniProt P04003 (P04003 49-597, chain 1 of 2): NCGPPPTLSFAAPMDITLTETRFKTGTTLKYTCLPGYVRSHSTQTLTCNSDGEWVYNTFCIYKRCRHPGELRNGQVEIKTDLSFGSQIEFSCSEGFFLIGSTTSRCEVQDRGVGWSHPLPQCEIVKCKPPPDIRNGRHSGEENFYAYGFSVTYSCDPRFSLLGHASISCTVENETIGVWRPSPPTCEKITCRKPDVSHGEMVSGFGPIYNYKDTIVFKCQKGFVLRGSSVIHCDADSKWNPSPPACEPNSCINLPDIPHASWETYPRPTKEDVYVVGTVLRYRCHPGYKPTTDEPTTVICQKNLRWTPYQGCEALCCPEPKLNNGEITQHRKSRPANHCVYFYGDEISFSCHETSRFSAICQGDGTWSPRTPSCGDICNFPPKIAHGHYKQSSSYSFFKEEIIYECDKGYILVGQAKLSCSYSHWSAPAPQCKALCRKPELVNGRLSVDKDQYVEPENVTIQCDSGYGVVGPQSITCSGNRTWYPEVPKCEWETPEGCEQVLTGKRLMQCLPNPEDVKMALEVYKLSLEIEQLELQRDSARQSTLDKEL
# Chain of UniProt P04003 (P20851 18-252, chain 2 of 2, further chain): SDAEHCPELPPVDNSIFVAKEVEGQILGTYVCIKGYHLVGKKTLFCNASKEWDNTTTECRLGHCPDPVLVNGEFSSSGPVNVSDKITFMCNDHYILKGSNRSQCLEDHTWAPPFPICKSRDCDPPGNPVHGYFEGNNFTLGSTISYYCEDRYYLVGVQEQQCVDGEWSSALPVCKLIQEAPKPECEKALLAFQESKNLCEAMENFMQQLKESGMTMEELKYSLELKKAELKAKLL
substance,measurement,value
synthetic peptide of outer surface loop 2 of P5 from NTHi KR271,Kd,73 µM
synthetic peptide of outer surface loop 2 of P5 from NTHi 3655,Kd,10 µM
